assay: yeast display, Sf9 membrane polyspecificity reagent, FACS + sequencing; frameworks hold sequencing errors
Procedure, shortened: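 In a synthetic yeast display library (Saccharomyces cerevisiae BJ5465), nanobody expression was induced with galactose for 36–48 hours. FACS gates were set low and high (top ~1%) using anti-HA fluorescence for expression and streptavidin fluorescence for binding of the Sf9 membrane reagent. Each polyreactivity label is drawn from the gate of origin.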

Sequence | polyreactivity (PSR sort gate)
QVQLVESGGGLVQAGGSLRLSCAASGIIFDYNAMGWYRQAPGKERELVASIDSGGSTNYADSVKGRFTISRDNAKNTVYLQMNSLKPEDTAVYYSNADDTTVSPWYYYYQSYYWGQGTQVTVSS | low polyreactivity
QVQLVESGGGLVQAGGSLRLSCAASGSIFWWYTMGRYRQAPGKERELVAAITWNADGTYYADSVKGRFTISRDNAKNTVYLQMNSLKPEDTAVYYCAADQYYLDWGGGYDYWGQGPQVTVSS | low polyreactivity
QVQLVESGGGLVQAGGSLRLSCAASGSTFSLYAMGWYRQAPGKERELVAAINSGTSTYYADSVKGRFTISRDNAKNTVYLQMNSLKPEDTAVYYCAADGYPLQLYNYWGQGTQVTVSS | low polyreactivity
QVQLVESRGGLVQAGCSLRLSSAASGLIFYFYTMGWYRQAPGKERELVDSIRSGDSTNYADSVKGRFTISRDNAKNTVYLQMNSLKPEDTAVYYCNARYRYPYYLSVAEKYDYWGQGTQVTVSS | high polyreactivity
QVQLVESGGGLVQAGGSLRLSCAASGSTFNDNAMGWYRQAPGKERELVAAIRWSGGSTYYADSVKGRFTISRDNAKNTVYLQMNSLKPEDTAVYYCAASRRYYLTYRYYYWGQGTQVTVSS | high polyreactivity
QVQLVESGGGLVQAGGSLRLSCAASGSTFVVNTMGWYRQAPGKERELVATISDIGSSTDYADSVKGRFTISRDNAKNTVYLQMNSLKPEDTAVYYCAASIDDIITDDFYWVSWAYYYWGQGTQVTVSS | low polyreactivity
QVQLVESGGGLVQAGGSLRLSCAASGSTIYYNAMGWYRQAPGKERELVARISRSGGSTYADSVKGRFTISRDNAKNTVYLQMNSLKPEDTAVYYCNADAYGTPEFTSYAVRYDYWGQGTQVTVSS | low polyreactivity
QVQLVESGGGLVQAGGSLRLSCAASGRILTKYAMGWYRQAPGKERELVAAISDSGTGTYYADSVKGRFTISRDNAKNTVYLQMNSLKPEDTAVYYCHAQTRRTRTYHGHKYGYWGQGTQVTVSW | high polyreactivity
QVQLVESGGGLVQAGGSLRLSCAASGSIFFEYAMGWYRQAPGKERALVASINRGGGSTYYADSVKGRFTISRDYAKNTVYLQMNILIPEDTAVYYCAAQWKYRQYYLDYYWGQGTQVTVSS | low polyreactivity
QVQLVESGGGLVQAGGSLRLSCAASGRIFVYNAMGSYRQAPGKERELVAAINSGTITNSADSVKGRFTISRDNGKNTVYLQMNSRIPEDTAVSYCAAPWYPSTDYNYWGQGTQVTVSS | low polyreactivity
QVQLVESGGGLVQAGGTLRLSCAASGRTFTSYTMGWYRQAPGKERELVATISFGGGRTYADSVKGRFTISRDNAKNTVYLQMNSLKTEDTAVYYCNAGYYWRLHWWYYYWGQGTQVTVSS | high polyreactivity
QVQLVESGGGLVQAGGSLRLSCAASGRIFSRYVMGWYRQAPGKERELVAAISWNGGSTYYADSVKGRFRISRDNAKNTVYFQMNSLIPEDTAVYYCAARVRVTGTYYTKYDYWGQGTQVTVSS | high polyreactivity
QVQLVESGGGLVQAGGSLRLSCAASGSIFLAYLKGWYRQAPGKERELVAAISYRGVSTYYADSVKGRFTISRDNAKNTVYLQMTRLNPEDTAVYYFAAEHLWGAVFLYVRSTGLDYWGQGTQVTVSS | low polyreactivity
QVQLVEAGGGLVQAGGSLRLSCAASGPIFPLYAKGWYRQAPGKERELVAAISSGGTTYYADSVKGRFTISRDNAKNTVYLQMNSLKQEDTAVYYCARRPAQRLGRFDYWGQGTQVTVSS | low polyreactivity
QVQLVESGGGLVQAGGSLRLTCAASGSTFQVNDMGWYRQAPGKDRELLASISGGSSTNYADSVKGRFTISRDNAKNTVYLQMHSLQPEDTAVYYCAAYYLSGLRVAYDYWGQGPQVTVSS | low polyreactivity
QVQLVESGGGLVQAGGSLRLSCAASGRTFSSYTMGWYRQAPGKEREMVAAISKSGASTYYADSVKGRFTISRDNAKNTVYLQMNSLKPEDTAVYYLAARAYPFKIDGYWGQGTQVTVSS | high polyreactivity
QVQLVESGGGLVQAGGSLRLSCAASGRIFAVNAMGWYRQAPGKERELVAAINGGGSTNYADSVKGRFTISRDNAKNTVYFQMNSLKPEDTAVYYCAADVGWRSQTRGYYWGQGTQVTVSS | high polyreactivity
QVQLVESGGGLVQAGGSLRLSCAASGRTFITNAMGRNRQAPGKERELVARISSDGSTYYADSVKGRFTISRDNAKNTVYLQMNSLKPEDTAVYYCNKEFLRRQLFTFWHLGGYWGQVTQVTVSS | low polyreactivity
QVQLVESGGGLVQAGGSLRLSCAASGSTFSRYAMGWYRQAPGKERELVAAISGSGGSTSYADSVKGRFTISRDNAKNTVYLQMNSLKPEDTAVYYCAAYYLWYSRAFDYWGQGTQVTVSS | high polyreactivity
QVQLVESGGGLVKAGGSLRLSCAASGSIFGGYAMGCYRQAPGKERELVAAISYRGASTYYADSVKWRFTISRDNAKNTVYLQMNSLKPEDTAVYYCAVAARTRARVLYGYDYWGQGTQVTVSS | low polyreactivity
QVQLVESGGGLVQAGGSLRLSCAASGRTFYVYTMGWYRQAPGKERELVAGISYSGGSTYYADSVKGRFTISRDNAKNTVYLQMNSLKPEDTAVYYCNRGLAARVGRGDYWGQGTQVTVSS | low polyreactivity

From the nanobody polyreactivity screen of Harvey et al. (2022)
